Measured values as given in the supplement of paper PMC10126150.
± gives the standard deviation of the averaged measurements.

Test system: ATP
Test: switch fluorescence ratio, 500 uM ATP over buffer (Cy3 cluster intensity, sum of 5 cycles each) (fold (ratio)); higher = stronger signal-on switching upon ATP binding; sequences stand for … in TCGTCGGCAGCGTCAGATGTGTATAAGAGACAGTTTTTTTTTTTTTTTTTTTTTTTTT…TC
Details: aptamer strand: ATP DNA aptamer (quencher-CACCTGGGGGAGTATTGCGGAGGAAGG + anchor), 100 nM annealed; ATP concentration: 500 uM
Procedure, shortened: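 The quencher-labelled ATP aptamer, at 100 nM, was annealed to Cy3-labelled switching-strand clusters on a modified Illumina MiSeq flow-cell. The clusters were imaged in selection buffer, then after 15 min with 500 uM ATP at 22 °C, and this buffer/ATP cycle ran five times with NaOH stripping and re-annealing between runs. Per-cluster fluorescence ratios, summed target-cycle over summed buffer-cycle Cy3 intensity, were averaged per switch-domain sequence. Clusters outside 100-1000 RFU were excluded.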
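Note: ATP exposure 15 min at 22 °C before imaging.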

Sequence	switch fluorescence ratio
CGGGGAGGCG	0.982 ± 0.079
CGGGGAGGGC	1.04 ± 0.071
CGGGGAGTGT	1 ± 0.043
CGGGGCATAT	1.13 ± 0.085
CGGGGCCTAG	1.01 ± 0.058
CGGGGCGCGA	1.1 ± 0.049
CGGGGCGGCA	0.998 ± 0.032
CGGGGCGTCA	0.978 ± 0.032
CGGGGCTAGG	0.992 ± 0.017
CGGGGCTCCT	0.995 ± 0.036
CGGGGCTGGA	0.984 ± 0.017
CGGGGGAAAC	0.977 ± 0.015
CGGGGGACT	1.61 ± 0.85
CGGGGGAGAG	0.9847 ± 0.009
CGGGGGATAG	1.06 ± 0.074
CGGGGGATCC	1.13 ± 0.16
CGGGGGATCT	1.01 ± 0.038
CGGGGGCAGT	1.006 ± 0.0067
CGGGGGCTCC	1.02 ± 0.021
CGGGGGCTT	1.002 ± 0.0044
CGGGGGGATC	1.02 ± 0.058
CGGGGGGCGG	0.986 ± 0.032
CGGGGGGGGT	1.01 ± 0.031
CGGGGGGTTC	1 ± 0.019
CGGGGGTGGG	1.01 ± 0.047

Sequence	switch fluorescence ratio
CGGGGGTTAT	1.03 ± 0.063
CGGGGTAAGG	0.988 ± 0.024
CGGGGTAGGT	0.984 ± 0.027
CGGGGTCCTC	1.01 ± 0.018
CGGGGTCGTG	0.9904 ± 0.0035
CGGGGTGAAC	0.994 ± 0.038
CGGGGTGCCG	0.98847 ± 0.00081
CGGGGTGCGG	1 ± 0.056
CGGGGTGGCT	0.977 ± 0.16
CGGGGTGGTT	1.01 ± 0.038
CGGGGTTAAG	0.975 ± 0.025
CGGGGTTCTT	1.02 ± 0.031
CGGGGTTGAC	0.9924 ± 0.0098
CGGGGTTGCC	0.955 ± 0.022
CGGGGTTTAG	0.992 ± 0.051
CGGGTAAACG	0.964 ± 0.079
CGGGTAAATA	1.011 ± 0.0084
CGGGTAAGTC	0.995 ± 0.01
CGGGTAATCT	1.5 ± 0.61
CGGGTACCGC	1.05 ± 0.053
CGGGTACGGT	0.992 ± 0.022
CGGGTAGAAG	0.971 ± 0.046
CGGGTAGGCT	1.02 ± 0.057
CGGGTAGGTG	1.03 ± 0.058
CGGGTAGTGC	1.028 ± 0.0078

Sequence	switch fluorescence ratio
CGGGTAGTTG	0.995 ± 0.014
CGGGTATGGT	1 ± 0.027
CGGGTATTGC	1.03 ± 0.011
CGGGTATTTC	1.01 ± 0.014
CGGGTCGGCC	0.997 ± 0.025
CGGGTCGGGA	0.995 ± 0.041
CGGGTCGTGG	0.996 ± 0.024
CGGGTCTTGT	0.98864 ± 0.00032
CGGGTGAGGG	1.017 ± 0.0065
CGGGTGATCG	0.96 ± 0.043
CGGGTGGGAT	1.006 ± 0.0035
CGGGTGGTAT	0.991 ± 0.023
CGGGTGGTTA	1.01 ± 0.022
CGGGTGTGTG	0.981 ± 0.019
CGGGTTAATG	0.986 ± 0.019
CGGGTTCCGA	0.998 ± 0.024
CGGGTTCGAG	0.959 ± 0.001
CGGGTTCTTT	1.03 ± 0.11
CGGGTTGGAA	0.9731 ± 0.0091
CGGGTTGGGT	1.01 ± 0.049
CGGGTTTCAC	1 ± 0.003
CGGGTTTGCG	0.992 ± 0.036
CGGGTTTGGT	1.01 ± 0.011
CGGGTTTTGG	1.01 ± 0.034
CGGGTTTTTC	0.972 ± 0.028

Sequence	switch fluorescence ratio
CGGGTTTTTG	0.994 ± 0.03
CGGTAACAAA	1.01 ± 0.019
CGGTACTCGA	0.993 ± 0.015
CGGTAGCTTG	1 ± 0.019
CGGTAGGATG	0.971 ± 0.011
CGGTAGGATT	1.04 ± 0.014
CGGTAGGTGC	0.976 ± 0.063
CGGTATATGG	0.962 ± 0.013
CGGTATGTGA	0.985 ± 0.041
CGGTATTCTG	1.01 ± 0.052
CGGTCAAAAA	1.03 ± 0.033
CGGTCAGTAA	1.03 ± 0.022
CGGTCATCTT	0.9991 ± 0.0047
CGGTCCAGTA	0.912 ± 0.048
CGGTCCCATT	0.992 ± 0.047
CGGTCCGGTG	1.04 ± 0.026
CGGTCCTGAA	1.03 ± 0.002
CGGTCGAGGA	0.988 ± 0.021
CGGTCGCTGG	0.991 ± 0.026
CGGTCGTTGT	1.02 ± 0.03
CGGTGAAAAT	0.97 ± 0.027
CGGTGAATAT	0.9712 ± 0.0087
CGGTGCACGG	1.05 ± 0.027
CGGTGGATCA	0.992 ± 0.017
CGGTGGGATG	0.9784 ± 0.0072

Sequence	switch fluorescence ratio
CGGTGGGCCG	1.05 ± 0.025
CGGTGGTTTG	0.996 ± 0.026
CGGTGTAGCC	1.02 ± 0.014
CGGTGTATTC	0.988 ± 0.011
CGGTGTGAGG	0.988 ± 0.031
CGGTGTGCCT	0.966 ± 0.029
CGGTGTGTGC	1.04 ± 0.026
CGGTGTTGTG	0.986 ± 0.024
CGGTTACCTG	0.9708 ± 0.0074
CGGTTAGTTC	0.946 ± 0.023
CGGTTATTTA	1.04 ± 0.011
CGGTTCGCGA	1.03 ± 0.019
CGGTTCGTGG	1.004 ± 0.0068
CGGTTGCATT	1.04 ± 0.031
CGGTTGCGTT	0.987 ± 0.035
CGGTTGCTAG	0.997 ± 0.042
CGGTTGGAGC	0.988 ± 0.042
CGGTTGGGCC	0.993 ± 0.014
CGGTTGGGGG	0.962 ± 0.033
CGGTTGGGTT	0.99659 ± 6.3e-05
CGGTTGTCGA	1.01 ± 0.023
CGGTTGTGCG	0.969 ± 0.025
CGGTTTATGG	0.943 ± 0.022
CGGTTTGACA	0.9954 ± 0.0092
CGGTTTGCGT	0.9748 ± 0.0029

Sequence	switch fluorescence ratio
CGGTTTGTCT	0.986 ± 0.018
CGGTTTTGCG	0.985 ± 0.024
CGGTTTTGGG	0.977 ± 0.012
CGGTTTTTGC	1.03 ± 0.058
CGGTTTTTTG	0.964 ± 0.014
CGTAAAGGCC	0.9465 ± 0.0012
CGTAAAGTAG	1.01 ± 0.022
CGTAATATTA	1.07 ± 0.01
CGTACAAAAG	0.998 ± 0.03
CGTACGGCTC	1.058 ± 0.0038
CGTACTAGAT	0.9959 ± 0.0086
CGTACTGGAG	1.01 ± 0.056
CGTAGAGGAA	0.994 ± 0.03
CGTAGAGGGG	0.9858 ± 0.0073
CGTAGCGTTT	0.998 ± 0.04
CGTAGGAGGA	0.98 ± 0.036
CGTAGGGGAA	0.993 ± 0.02
CGTAGGGTCA	0.9871 ± 0.0082
CGTAGGGTTA	1.01 ± 0.025
CGTAGGTAAT	1.01 ± 0.04
CGTAGTACGC	1.12 ± 0.04
CGTAGTTTAG	1.05 ± 0.027
CGTAGTTTAT	1.07 ± 0.022
CGTAGTTTTG	1.007 ± 0.0074
CGTATAAAAA	0.971 ± 0.068

Sequence	switch fluorescence ratio
CGTATAGGGA	1.015 ± 0.01
CGTATAGGTC	0.999 ± 0.033
CGTATATGGG	0.995 ± 0.022
CGTATCATGC	0.985 ± 0.011
CGTATCCCGT	0.974 ± 0.014
CGTATGAAGC	0.972 ± 0.02
CGTATGCAAG	0.967 ± 0.041
CGTATGTGGT	0.97 ± 0.019
CGTATTCTGT	0.9845 ± 0.0037
CGTATTGCGC	0.971 ± 0.038
CGTATTTTAC	1.08 ± 0.038
CGTATTTTGC	1.03 ± 0.066
CGTCAGCGGC	1.25 ± 0.053
CGTCAGGCAT	1.17 ± 0.026
CGTCATCAGG	1.042 ± 0.0069
CGTCATGTCT	1 ± 0.065
CGTCATTGGG	0.992 ± 0.045
CGTCCCAGCT	1.12 ± 0.018
CGTCCGAGGT	1.3 ± 0.048
CGTCCTGGGC	1.0441 ± 0.00044
CGTCGCGGCA	0.989 ± 0.026
CGTCGGGTGG	0.9882 ± 0.0028
CGTCGTACGC	0.981 ± 0.13
CGTCGTTCTC	1.02 ± 0.07
CGTCTAAGTC	1.01 ± 0.046

Sequence	switch fluorescence ratio
CGTCTAAGTG	0.99 ± 0.019
CGTCTACATG	1.03 ± 0.027
CGTCTATGGG	1 ± 0.014
CGTCTGCGCG	0.972 ± 0.081
CGTCTGGCGG	1.01 ± 0.021
CGTCTTAGGG	0.966 ± 0.016
CGTCTTTAGA	0.987 ± 0.01
CGTGAAAGG	0.9546 ± 0.0042
CGTGAATTTG	0.987 ± 0.026
CGTGACCAGG	1.14 ± 0.029
CGTGACGGGG	0.978 ± 0.043
CGTGAGTTGG	0.992 ± 0.014
CGTGATCAGA	0.996 ± 0.039
CGTGATGAGG	0.989 ± 0.028
CGTGATTGCT	1.03 ± 0.074
CGTGATTTTT	1 ± 0.041
CGTGCAGCGG	1 ± 0.014
CGTGCAGGGG	1.057 ± 0.0013
CGTGCGGCGT	0.9829 ± 0.0026
CGTGCTGGGA	1.03 ± 0.033
CGTGCTTGTA	1.01 ± 0.025
CGTGCTTTCT	0.999 ± 0.029
CGTGGAGTGG	0.996 ± 0.029
CGTGGATGCG	1.025 ± 0.0038
CGTGGATGGT	0.9933 ± 0.0032
